Data from the Immune Epitope Database (IEDB).

Tests used:
Experiment in all cases: IEDB peptide-MHC binding, purified MHC/competitive/radioactivity; filed as Kd, often an IC50 or EC50 that approximates it; ≥ and ≤ were set here for values at or beyond the usual limits of such assays
HLA-A*02:02 = biological target: HLA-A*02:02
HLA-A*02:03 = biological target: HLA-A*02:03
HLA-A*02:06 = biological target: HLA-A*02:06
HLA-A*03:01 = biological target: HLA-A*03:01
HLA-A*11:01 = biological target: HLA-A*11:01
HLA-A*31:01 = biological target: HLA-A*31:01
HLA-A*33:01 = biological target: HLA-A*33:01
HLA-A*68:01 = biological target: HLA-A*68:01
[1] = source organism: Vaccinia virus WR
[2] = source organism: Mammarenavirus machupoense
[3] = source organism: Mammarenavirus brazilense
[4] = source organism: SARS coronavirus Tor2
[5] = source organism: Mammarenavirus guanaritoense

Row | Sequence | Kd (HLA-A*02:02; [1]) [nM] | Kd (HLA-A*02:03; [1]) [nM] | Kd (HLA-A*02:06; [1]) [nM] | other results
1 | DVIKSISSI | ≥ 63800 | 7520 | 15000 | –
2 | VLLPFYETL | 4060 | 267 | 218 | –
3 | NMCNSDVSV | 80 | 30.3 | 97 | –
4 | PVETLFGSYI | 13700 | 11800 | ≥ 69800 | –
5 | GLSQFTHTV | – | – | – | Kd (HLA-A*02:02; [2]): 5.28 nM; Kd (HLA-A*02:03; [2]): 7.65 nM; Kd (HLA-A*02:06; [2]): 332 nM
6 | LLPDALLFTL | – | – | – | Kd (HLA-A*02:02; [3]): 4.72 nM; Kd (HLA-A*02:03; [3]): 732 nM; Kd (HLA-A*02:06; [3]): 78.9 nM
7 | AVIPFDDIV | 313 | 241 | 42.4 | –
8 | FIISTLNKIL | 5080 | 1.8 | 8.1 | –
9 | FITVLTSVDI | 1420 | 237 | 1270 | –
10 | SVKYYGRST | 6790 | 1160 | 19400 | –
11 | IVVALSSLV | 26.7 | 3.85 | 8.23 | –
12 | IVAIDLDPV | – | – | – | Kd (HLA-A*02:06; source organism: Dengue virus 1 Brazil/97-11/1997): 11.2 nM
13 | NQILEENVEV | – | – | – | Kd (HLA-A*02:06; source organism: Dengue virus 2 Jamaica/1409/1983): 56.1 nM
14 | ETLPELNLSL | 52.3 | 130 | 134 | –
15 | VQLSNNKYVL | 288 | 9490 | 170 | –
16 | IASAPQQLCT | ≥ 53200 | ≥ 70400 | 8320 | –
17 | RLRQDTEDIV | 134 | 284 | 7490 | –
18 | IIMAINVFT | 39.3 | 180 | 10.3 | –
19 | AISAVYFKA | 3.65 | 525 | 149 | –
20 | IIFWFSLEI | – | – | – | Kd (HLA-A*02:02; [4]): 1.75 nM; Kd (HLA-A*02:03; [4]): 87 nM; Kd (HLA-A*02:06; [4]): 4.64 nM
21 | FISSFLLPLT | 38.6 | 44.2 | 50.6 | –
22 | DLTALLSCI | 5200 | 996 | 4880 | –
23 | AIFNNRNLA | 272 | 98.1 | 7.07 | –
24 | TVGMLIYSM | 490 | 6090 | 9170 | –
25 | RLEVIGLTT | ≥ 20000 | 13900 | ≥ 49800 | –

Row | Sequence | Kd (HLA-A*02:02; [1]) [nM] | Kd (HLA-A*02:03; [1]) [nM] | Kd (HLA-A*02:06; [1]) [nM] | other results
26 | HTNHSDISM | 8810 | 4140 | 1200 | –
27 | DINVIGLIVI | 7150 | 2810 | 2790 | –
28 | YLYNKYSFKL | 0.109 | 0.0349 | 0.14 | –
29 | FLLPSLATV | – | – | – | Kd (HLA-A*02:02; [4]): 0.134 nM; Kd (HLA-A*02:03; [4]): 0.204 nM; Kd (HLA-A*02:06; [4]): 0.411 nM
30 | SMSQELAEL | 3.98 | 7.66 | 186 | –
31 | YLSGTDDEVI | 6.26 | 211 | 947 | –
32 | SLPSYAAYA | – | – | – | Kd (HLA-A*02:02; [4]): 6.68 nM; Kd (HLA-A*02:03; [4]): 2.56 nM; Kd (HLA-A*02:06; [4]): 8.72 nM
33 | ILSEKRKDTI | ≥ 44000 | 541 | ≥ 69800 | –
34 | RVLYDEFVT | 2170 | 1410 | 1720 | –
35 | GLTTHCTKL | 100 | 30 | ≥ 31600 | –
36 | TISWMMKLGI | 7840 | 972 | 2780 | –
37 | ALVFLILCFT | – | – | – | Kd (HLA-A*02:02; [4]): 209 nM; Kd (HLA-A*02:03; [4]): 1120 nM; Kd (HLA-A*02:06; [4]): 229 nM
38 | VTFINDYANL | 99.1 | 247 | 148 | –
39 | HQIFGTAYGV | – | – | – | Kd (HLA-A*02:06; source organism: Dengue virus 1 Nauru/West Pac/1974): 20.6 nM
40 | FTDCRTIDA | 10900 | 2680 | 2710 | –
41 | TLVDLCFWS | – | – | – | Kd (HLA-A*02:02; [5]): 57.9 nM; Kd (HLA-A*02:03; [5]): 523 nM; Kd (HLA-A*02:06; [5]): 134 nM
42 | FVFNGTSWFI | – | – | – | Kd (HLA-A*02:02; [4]): 1.01 nM; Kd (HLA-A*02:03; [4]): 2.15 nM; Kd (HLA-A*02:06; [4]): 0.439 nM
43 | LSEYETMVDY | – | – | – | Kd (HLA-A*03:01; [1]): 5270 nM; Kd (HLA-A*11:01; [1]): 16000 nM; Kd (HLA-A*31:01; [1]): ≥ 70000 nM; Kd (HLA-A*33:01; [1]): ≥ 70000 nM; Kd (HLA-A*68:01; [1]): ≥ 70200 nM
44 | DIDILQTNSR | – | – | – | Kd (HLA-A*03:01; [1]): 63.8 nM; Kd (HLA-A*11:01; [1]): ≥ 27300 nM; Kd (HLA-A*31:01; [1]): 711 nM; Kd (HLA-A*33:01; [1]): 314 nM; Kd (HLA-A*68:01; [1]): 839 nM
45 | ALLADKFPV | – | – | – | Kd (HLA-A*02:02; [4]): 29.1 nM; Kd (HLA-A*02:03; [4]): 604 nM; Kd (HLA-A*02:06; [4]): 22.8 nM
46 | IMDKEQLLK | – | – | – | Kd (HLA-A*03:01; [1]): 10.2 nM; Kd (HLA-A*11:01; [1]): 22 nM; Kd (HLA-A*31:01; [1]): 1130 nM; Kd (HLA-A*33:01; [1]): 6380 nM; Kd (HLA-A*68:01; [1]): 1110 nM
47 | ATSTRHPSK | – | – | – | Kd (HLA-A*03:01; [4]): 0.599 nM; Kd (HLA-A*11:01; [4]): 9.8 nM; Kd (HLA-A*31:01; [4]): 623 nM; Kd (HLA-A*33:01; [4]): ≥ 77700 nM; Kd (HLA-A*68:01; [4]): 275 nM
48 | NSSAVVDNK | – | – | – | Kd (HLA-A*03:01; [1]): 8230 nM; Kd (HLA-A*11:01; [1]): 195 nM; Kd (HLA-A*31:01; [1]): ≥ 30600 nM; Kd (HLA-A*33:01; [1]): ≥ 77700 nM; Kd (HLA-A*68:01; [1]): 44.1 nM
49 | NVDIIDLLL | 461 | 4090 | 22.3 | –
50 | ELGFNYPEY | – | – | – | Kd (HLA-A*03:01; [1]): ≥ 39700 nM; Kd (HLA-A*11:01; [1]): ≥ 66700 nM; Kd (HLA-A*31:01; [1]): ≥ 77900 nM; Kd (HLA-A*33:01; [1]): ≥ 77700 nM; Kd (HLA-A*68:01; [1]): 8850 nM
